# Results as given in patent publication US20140162950A1.
# Biological target: integrin α3β1 on gastric cancer cells (MKN45, MKN45/CTGF, AGS) (human) (UniProt P26006)
# Test: cell-based or functional assay
# Sequence of UniProt P26006 (P26006 33-1051, chain 1 of 2): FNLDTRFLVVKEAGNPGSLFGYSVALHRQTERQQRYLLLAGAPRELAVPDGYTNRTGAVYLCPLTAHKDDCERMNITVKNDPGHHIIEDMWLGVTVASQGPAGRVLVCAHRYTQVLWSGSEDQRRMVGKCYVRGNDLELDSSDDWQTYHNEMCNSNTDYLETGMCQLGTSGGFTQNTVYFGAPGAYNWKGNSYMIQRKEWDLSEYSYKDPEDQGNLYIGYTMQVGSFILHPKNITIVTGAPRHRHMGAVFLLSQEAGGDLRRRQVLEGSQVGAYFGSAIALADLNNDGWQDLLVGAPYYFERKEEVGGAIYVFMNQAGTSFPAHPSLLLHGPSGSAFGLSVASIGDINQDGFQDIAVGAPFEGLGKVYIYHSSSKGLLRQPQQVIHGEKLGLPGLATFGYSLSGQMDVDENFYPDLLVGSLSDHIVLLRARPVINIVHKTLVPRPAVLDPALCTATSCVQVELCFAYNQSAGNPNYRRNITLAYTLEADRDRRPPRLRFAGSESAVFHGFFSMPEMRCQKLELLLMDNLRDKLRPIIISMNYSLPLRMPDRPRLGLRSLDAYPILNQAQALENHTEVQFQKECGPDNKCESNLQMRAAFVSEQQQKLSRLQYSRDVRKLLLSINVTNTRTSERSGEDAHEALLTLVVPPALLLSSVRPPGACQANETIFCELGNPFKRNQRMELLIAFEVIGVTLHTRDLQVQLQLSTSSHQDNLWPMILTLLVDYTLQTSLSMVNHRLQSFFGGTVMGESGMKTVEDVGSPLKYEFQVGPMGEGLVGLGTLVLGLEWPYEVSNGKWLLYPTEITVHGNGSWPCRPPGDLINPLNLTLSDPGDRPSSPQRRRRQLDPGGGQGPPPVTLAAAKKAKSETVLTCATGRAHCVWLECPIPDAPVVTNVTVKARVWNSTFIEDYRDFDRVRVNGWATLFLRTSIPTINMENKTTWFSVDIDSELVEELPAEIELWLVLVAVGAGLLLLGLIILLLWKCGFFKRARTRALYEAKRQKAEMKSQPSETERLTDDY
# Sequence of UniProt P26006 (P05556 21-798, chain 2 of 2, further chain): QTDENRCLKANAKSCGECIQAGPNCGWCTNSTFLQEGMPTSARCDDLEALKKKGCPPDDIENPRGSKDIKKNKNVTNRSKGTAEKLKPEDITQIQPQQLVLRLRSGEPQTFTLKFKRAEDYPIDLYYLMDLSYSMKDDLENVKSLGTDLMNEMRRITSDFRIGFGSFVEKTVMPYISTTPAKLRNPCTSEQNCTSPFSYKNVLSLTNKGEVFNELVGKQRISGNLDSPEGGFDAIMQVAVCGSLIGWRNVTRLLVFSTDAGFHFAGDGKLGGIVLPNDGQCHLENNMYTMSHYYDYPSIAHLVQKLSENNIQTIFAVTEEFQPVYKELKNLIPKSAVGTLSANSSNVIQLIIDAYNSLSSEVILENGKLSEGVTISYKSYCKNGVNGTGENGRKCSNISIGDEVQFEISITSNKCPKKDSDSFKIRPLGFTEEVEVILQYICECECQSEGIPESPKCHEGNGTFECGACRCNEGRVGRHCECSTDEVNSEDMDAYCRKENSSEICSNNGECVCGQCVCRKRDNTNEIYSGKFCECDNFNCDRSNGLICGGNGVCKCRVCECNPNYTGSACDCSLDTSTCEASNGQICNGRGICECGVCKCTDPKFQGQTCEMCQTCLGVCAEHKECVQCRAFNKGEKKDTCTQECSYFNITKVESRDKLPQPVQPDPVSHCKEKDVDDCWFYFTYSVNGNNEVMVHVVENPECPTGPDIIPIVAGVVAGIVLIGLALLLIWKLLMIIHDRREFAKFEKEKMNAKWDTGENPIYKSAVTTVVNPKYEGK
substance,measurement,value
recombinant CTGF C terminal (CT) domain (from UniProt P29279 253-349) (ligand),"adhesion inhibition (MKN45 cells, matrigel adhesion assay, 6 hours post treatment, 50 ng rCTGF)",50%
same,"adhesion inhibition (MKN45 cells, matrigel adhesion assay, 6 hours post treatment, 100 ng rCTGF)",70%
same,"adhesion inhibition (MKN45 cells, matrigel adhesion assay, 6 hours post treatment, 200 ng rCTGF)",75%
